Results from patent publication US8398971B2, “Methods, compounds, and compositions for treatment and prophylaxis in the respiratory tract” (NexBio, Inc., priority 2009, dated 2013).
Where “and” joins values, the source holds several entries; their conditions need not be identical. Equal values may be shown once. Entries after “also recorded” stand apart in the source; their conditions may differ. Read-outs that look alike come from different tables or passages of the source.

Tests used:
[1] = pH 5; cited from earlier work
[2] = test system: acute OVA challenge mouse model of asthma; test: PAS staining for lung mucus in OVA mouse model of asthma; set-up: species or system BALB/c mice; settings: in vivo
[3] = test system: acute OVA challenge mouse model of asthma; test: blood eosinophil counts in OVA mouse model of asthma; assay type: in vivo, BALB/c mice; settings: 0.6 mg/kg intranasal
[4] = test system: guinea pig model of allergic asthma; test: allergen-induced early asthmatic reaction (PenH) in conscious unrestrained guinea pigs; assay type: in vivo; settings: for decrease of early asthmatic reaction (PenH) after OVA aerosol: OVA guinea pigs; for basal PenH: guinea pig, in vivo, 0.3 mg/kg
M3 muscarinic receptor = biological target: T1, M3 muscarinic receptor (Homo sapiens, UniProt P20309); test: M3 muscarinic receptor signaling in chem-1 cells (intracellular calcium); assay type: cell-based; settings: 0.4, 2 or 10 μM
T1 construct: host or cells: chem-1 cells
T1 sequence (P20309 whole entry): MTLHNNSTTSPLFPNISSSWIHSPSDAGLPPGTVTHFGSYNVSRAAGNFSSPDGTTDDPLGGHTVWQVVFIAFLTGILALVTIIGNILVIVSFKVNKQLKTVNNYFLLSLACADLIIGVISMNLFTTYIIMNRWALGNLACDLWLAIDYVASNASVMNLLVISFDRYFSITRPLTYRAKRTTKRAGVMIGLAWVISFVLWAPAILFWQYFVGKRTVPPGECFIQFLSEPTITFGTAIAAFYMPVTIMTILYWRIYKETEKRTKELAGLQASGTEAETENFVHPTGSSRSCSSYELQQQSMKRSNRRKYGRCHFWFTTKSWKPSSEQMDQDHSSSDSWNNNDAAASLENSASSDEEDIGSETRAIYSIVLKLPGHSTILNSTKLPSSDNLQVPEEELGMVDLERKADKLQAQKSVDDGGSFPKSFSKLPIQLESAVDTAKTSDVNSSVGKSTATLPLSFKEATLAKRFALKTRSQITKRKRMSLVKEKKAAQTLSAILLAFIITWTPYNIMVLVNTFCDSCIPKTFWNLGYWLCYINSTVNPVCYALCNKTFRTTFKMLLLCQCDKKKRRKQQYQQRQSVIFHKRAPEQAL

M2 muscarinic receptor = M2 muscarinic receptor (Homo sapiens, UniProt P08172); test: M2 muscarinic receptor signaling in chem-1 cells (intracellular calcium); assay type: cell-based; settings: 0.4, 2 or 10 μM
M2 muscarinic receptor, sequence (P08172 whole entry): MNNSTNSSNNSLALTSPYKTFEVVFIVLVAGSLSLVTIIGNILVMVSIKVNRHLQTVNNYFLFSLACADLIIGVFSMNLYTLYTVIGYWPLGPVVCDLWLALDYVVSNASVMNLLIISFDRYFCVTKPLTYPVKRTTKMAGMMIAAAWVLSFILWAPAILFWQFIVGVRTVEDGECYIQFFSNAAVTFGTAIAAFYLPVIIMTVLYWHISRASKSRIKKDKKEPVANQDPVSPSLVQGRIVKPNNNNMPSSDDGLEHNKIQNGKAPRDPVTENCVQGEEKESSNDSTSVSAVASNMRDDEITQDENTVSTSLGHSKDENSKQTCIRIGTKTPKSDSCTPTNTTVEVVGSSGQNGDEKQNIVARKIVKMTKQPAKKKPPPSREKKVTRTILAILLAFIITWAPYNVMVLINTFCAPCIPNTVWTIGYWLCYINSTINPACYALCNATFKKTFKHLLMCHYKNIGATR

[5] = test system: acute OVA challenge mouse model of asthma; assay type: in vivo, BALB/c mice; settings: 0.6 mg/kg intranasal one hour prior to each OVA challenge; day 31
[6] = test system: guinea pig model of allergic asthma; test: cell count and differentiation in broncho-alveolar lavage fluid of guinea pigs; assay type: in vivo
influenza A (H1N1) virus = assay type: in vivo, ferrets; settings: for inflammatory response of infected ferrets: topical administration

B1: A. viscosus: bacterial sialidase enzyme from Actinomyces viscosus (SEQ ID NO:12) (protein, listed as Actinomyces viscosus)
chain: MTSHSPFSRRRLPALLGSLPLAATGLIAAAPPAHAVPTSDGLADVTITQVNAPADGLYSVGDVMTFNITLTNTSGEAHSYAPASTNLSGNVSKCRWRNVPAGTTKTDCTGLATHTVTAEDLKAGGFTPQIAYEVKAVEYAGKALSTPETIKGATSPVKANSLRVESITPSSSQENYKLGDTVSYTVRVRSVSDKTINVAATESSFDDLGRQCHWGGLKPGKGAVYNCKPLTHTITQADVDAGRWTPSITLTATGTDGATLQTLTATGNPINVVGDHPQATPAPAPDASTELPASMSQAQHLAANTATDNYRIPAITTAPNGDLLISYDERPKDNGNGGSDAPNPNHIVQRRSTDGGKTWSAPTYIHQGTETGKKVGYSDPSYVVDHQTGTIFNFHVKSYDQGWGGSRGGTDPENRGIIQAEVSTSTDNGWTWTHRTITADITKDKPWTARFAASGQGIQIQHGPHAGRLVQQYTIRTAGGAVQAVSVYSDDHGKTWQAGTPIGTGMDENKVVELSDGSLMLNSRASDGSGFRKVAHSTDGGQTWSEPVSDKNLPDSVDNAQIIRAFPNAAPDDPRAKVLLLSHSPNPRPWSRDRGTISMSCDDGASWTTSKVFHEPFVGYTTIAVQSDGSIGLLSEDAHNGADYGGIWYRNFTMNWLGEQCGQKPAEPSPAPSPTAAPSAAPTEKPAPSAAPSAEPTQAPAPSSAPEPSAAPEPSSAPAPEPTTAPSTEPTPAPAPSSAPEQTDGPTAAPAPETSSAPAAEPTQAPTVAPSVEPTQAPGAQPSSAPKPGATGRAPSVVNPKATGAATEPGTPSSSASPAPSRNAAPTPKPGMEPDEIDRPSDGTMAQPTGGASAPSAAPTQAAKAGSRLSRTGTNALLILGLAGVAVVGGYLLLRARRSKN
stability in buffer [1]: stable

B2: DAS181: fusion protein comprising a catalytic domain of a sialidase, and an anchoring domain (SEQ ID NO:21) (protein)
chain: MGDHPQATPAPAPDASTELPASMSQAQHLAANTATDNYRIPAITTAPNGDLLISYDERPKDNGNGGSDAPNPNHIVQRRSTDGGKTWSAPTYIHQGTETGKKVGYSDPSYVVDHQTGTIFNFHVKSYDQGWGGSRGGTDPENRGIIQAEVSTSTDNGWTWTHRTITADITKDKPWTARFAASGQGIQIQHGPHAGRLVQQYTIRTAGGAVQAVSVYSDDHGKTWQAGTPIGTGMDENKVVELSDGSLMLNSRASDGSGFRKVAHSTDGGQTWSEPVSDKNLPDSVDNAQIIRAFPNAAPDDPRAKVLLLSHSPNPRPWSRDRGTISMSCDDGASWTTSKVFHEPFVGYTTIAVQSDGSIGLLSEDAHNGADYGGIWYRNFTMNWLGEQCGQKPAKRKKKGGKNGKNRRNRKKKNP
PAS staining of airway epithelium (lung mucus) vs OVA challenged mice [2]: statistically significant reduction in PAS staining; also recorded: significantly reduced PAS staining | blood eosinophils vs OVA challenged mice [3]: significantly reduced blood eosinophils | decrease of early asthmatic reaction (PenH) after OVA aerosol ([4]; treated on day 15, vs sodium sulfate): ~30% | decrease of early asthmatic reaction (PenH) after OVA aerosol ([4]; treated on day 20): not on day 20 | basal PenH [4]: 0.25±0.01 and 0.28±0.01 | basal PenH ([4]; listed as Fludase®): 0.27±0.02 and 0.31±0.03 | effect on potency of agonist-mediated M3 receptor signaling (M3 muscarinic receptor): decreased the potency of agonist-mediated M3 receptor signaling | effect on potency of agonist-mediated M2 receptor signaling (M2 muscarinic receptor): increased the potency of agonist-mediated M2 receptor signaling | Penh at 48 mg/ml Mch vs OVA challenged mice [5]: reduction in Penh | number of eosinophils in BAL fluid ([6]; guinea pig, in vivo): restore the number of eosinophils up to historical control levels | number of lymphocytes in BAL fluid ([6]; guinea pig, in vivo): decreased | number of all inflammatory cells (macrophages, lymphocytes, neutrophils and eosinophils) ([6]; inflammation caused by SOD or OVA): significantly decreased | neutrophil influx into the lungs (BAL) ([6]; saline and OVA groups): completely prevented this influx | total number of cells in BAL fluid ([6]; saline and OVA guinea pigs): decreases the total number of cells | total number of macrophages in BAL fluid ([6]; treatment on day 15 and 20, saline and OVA guinea pigs): strongly decreased

B3: AR-AvCD: recombinant AR-AvCD sialidase fusion protein made from Construct #2 (FIG. 5, SEQ ID NOs: 18 & 19) (protein)
chain: MVKRKKKGGKNGKNRRNRKKKNPGDHPQATPAPAPDASTELPASMSQAQHLAANTATDNYRIPAITTAPNGDLLISYDERPKDNGNGGSDAPNPNHIVQRRSTDGGKTWSAPTYIHQGTETGKKVGYSDPSYVVDHQTGTIFNFHVKSYDQGWGGSRGGTDPENRGIIQAEVSTSTDNGWTWTHRTITADITKDKPWTARFAASGQGIQIQHGPHAGRLVQQYTIRTAGGAVQAVSVYSDDHGKTWQAGTPIGTGMDENKVVELSDGSLMLNSRASDGSGFRKVAHSTDGGQTWSEPVSDKNLPDSVDNAQIIRAFPNAAPDDPRAKVLLLSHSPNPRPWSRDRGTISMSCDDGASWTTSKVFHEPFVGYTTIAVQSDGSIGLLSEDAHNGADYGGIWYRNFTMNWLGEQCGQKPAEGADYGGIWYRNFTMNWLGEQCGQKPAE
reduction of mean AUC of nasal protein concentrations vs vehicle-treated infected animals (influenza A (H1N1) virus; 8 infected treated ferrets): approximately 40% | mean AUC of nasal protein concentrations (influenza A (H1N1) virus; 8 infected treated ferrets that shed virus, vehicle 4.48): 2.68 arbitrary units | reduction of AUC value for cell counts vs vehicle-treated infected animals (influenza A (H1N1) virus; in vivo): approximately 3 fold | AUC value for inflammatory cell counts in nasal washes (influenza A (H1N1) virus; infected treated ferrets, vehicle 1965): 674 arbitrary units | inflammatory response of infected ferrets (influenza A (H1N1) virus): reduces the inflammatory responses | inflammatory response of infected ferrets (influenza A (H1N1) virus; listed as fusion protein): the inflammatory response was reduced | number of inflammatory cells in the nasal washes (influenza A (H1N1) virus; vs vehicle-treated infected animals): significant reduction in the number of inflammatory cells
